Measured values published in article doi:10.1101/2023.10.19.563203.
Where two headings read alike, the source gives them in different places.

Assays:
fibrin (human) [1] = target: fibrin (human) (UniProt P02679); experiment: co-sedimentation
fibrin (human) [2] = target: fibrin (human) (UniProt P02679); experiment: depletion on clotting, ELISA of plasma against the serum made from it
fibrin (human) [3] = target: fibrin (human) (UniProt P02679); experiment: co-sedimentation; remark: listed apart in the source
fibrin (human) [4] = target: fibrin (human) (UniProt P02679); experiment: radioligand binding

percent bound at 96 min, non-denaturing wash (fibrin (human) [1]) [%] | percent of the plasma level lost in the serum (healthy volunteer) (fibrin (human) [2]) [%] | fold increase of percent bound, enhanced against normal clots, at 140 mM NaCl (fibrin (human) [3]) [fold] | percent bound after 16 h, after 5 M urea wash (Table 1) (fibrin (human) [3]) [%] | percent bound at 30 min, after 5 M urea wash (fibrin (human) [3]) [%] | percent bound at 30 min, non-denaturing wash (fibrin (human) [3]) [%] | percent bound at 96 min, after 5 M urea wash (fibrin (human) [3]) [%] | percent bound at 96 min, non-denaturing wash (fibrin (human) [3]) [%] | percent bound at 960 min, after 5 M urea wash (fibrin (human) [3]) [%] | percent bound to enhanced plasma clots, 40 min, HEPES-½-saline wash (fibrin (human) [3]) [%] | percent bound to fibrin-only-clots, HEPES-½-saline wash (fibrin (human) [3]) [%] | percent bound to plasma clots at 70 mM salt (fibrin (human) [3]) [%] | Kd (fibrin (human) [4]) [nM] | binding at 75 mM NaCl as percent of that at 20 mM NaCl (fibrin (human) [4]) [%] | percent of input bound (500,000 cpm/well) (fibrin (human) [4]) [%] | percent of input bound at saturation (input 3.5 μg) (fibrin (human) [4]) [%] | Substance
25 | 38 | 6 | 30 | 13 | 22 | 18 | 26 | 32.5 | 21.5 | 19 | 21.5 | 0.055 | < 50 | 1.7 | 0.1 | factor H (from UniProt P08603 19-1231) (natural protein)
 |  |  | 31 |  |  |  |  |  |  |  |  |  |  |  |  | plasminogen (natural protein)
